Where two headings read alike, the source gives them in different places. One block for each molecule: values may come before it. Where a SMILES comes first, the peptide text is derived from it. Where no end group is shown, it is not given here.
What was measured:
A431 cells = assay: MTT cell viability assay, A431; assay type: cell-based
MCF-7 cells [1] = assay: MTT cell viability assay, MCF-7; assay type: cell-based
MCF-7 cells [2] = assay: Fluorescence microscopy cell binding/staining, MCF-7; assay type: cell-based; settings: MCF-7, 30-min treatment
Water solubility = assay type: physicochemical
[3] = system: EGFR-overexpressing A431 cells; assay: Fluorescence microscopy cell binding/staining, A431; assay type: cell-based; settings: A431, 30-min treatment
OaAEP1b = assay: OaAEP1b-catalyzed peptide cyclization (substrate screen, pH scan, kinetics); assay type: biochemical; settings: for Km / kcat: cyclization
Experimental: (§1) FIG. 9. Screening of P1′-Asp peptides for cyclization by A) VyPAL2, B) butelase-1 and C) OaAEP1b. Quantitative summary of reaction yields of the reaction mixtures. For each reaction, 25 nM of the enzyme and 5 μM of the peptide substrate (21a-21i) were mixed and reacted at pH 4.5, 25° C. for 60 min. The positive control peptide 21j was performed at the same conditions except at pH 7.4. Average yields and SDs were calculated from experiments performed in triplicate. The amino acid sequence of the peptides used are set forth in SEQ ID Nos. 15-24.
(§2) FIG. 10. Ligation activity of three different ligases under different pH and substrate. Cyclization activity of A) VyPAL2, B) Butelase-1 or C) OaAEP1b towards substrate 21e-DSL and 21j-NGL; Fold difference was calculated using the cyclization rate of 21j-NGL divided by that of 21e-DSL. All the results were the average reaction rate at different pH in triplicate experiments based on MALDI-TOF analysis. Light grey text in the “Fold difference” axis marks to the maximum fold difference.
(§3) FIG. 11. Enzymatic activity of three different ligases on the cyclization reaction of P1-Asp peptide 21e-DSL or 21a-DGL and P1-Asn-peptide 21j-NGL. A) Scheme of PAL-mediated P1-Asp peptide cyclization; B) Enzymatic kinetics of VyPAL2 in cyclizing 21e-DSL at pH 4.5; C) Enzymatic kinetics of VyPAL2 in cyclizing 21e-DSL at pH 7.0; D) Enzymatic kinetics of OaAEP1b in cyclizing 21a-DGL at pH 5.5; E) Enzymatic kinetics of Butelase-1 in cyclizing 21e-DSL at pH 4.5. F) Scheme of PAL-mediated cyclization of peptide 21j-NGL; G). Enzymatic kinetics of butelase-1 in cyclizing […] at pH 4.5; H)
(§4) Enzymatic kinetics of VyPAL2 in cyclizing 21j-NSL at pH 4.5; I) Enzymatic kinetics of butelase-1 in cyclizing 21j-NSL at pH 7.4; J) Enzymatic kinetics of OaAEP1b in cyclizing 21j-NSL at pH 7.0. Sequences of peptides used are set forth in SEQ ID Nos. 15, 19, 24.
(§5) PALs recognize a tripeptide motif Asx-P1′-P2′ in the acyl donor substrate for their catalyzed ligation reactions. Because the formation of the acyl-enzyme thioester intermediate is the rate-limiting step, the leaving group P1′-P2′ also plays an important role in determining the catalytic kinetics of a particular 40 PAL-mediated reaction. Previous studies have determined Leu as a preferred P2′ residue. To identify the most favorable P1′ residues for PAL-catalyzed Asp-ligation, a panel of peptides (peptide 21a-21j) with C-terminal DXL and N-terminal GI motifs was synthesized and cyclization reactions performed. Peptide 21j with a C-terminal NGL, a P1-Asn peptide favored by VyPAL2, was used for comparison with the P1-Asp peptides 21a-21i. […] Meanwhile, the P1′ substrate specificities of the two other ligases - Butelase-1 and OaAEP1b - were also evaluated by using the same substrates 21a-21j.
(§6) A pH scan experiment with the other two ligases: butelase-1 and OaAEP1 b, for their cyclase activity on 21e and 21j was also conducted. […] In fact, the difference in reaction efficiency between 21j and 21e was about 950 times at pH 7.4 (FIG. 10). […] This makes VyPAL2 a more efficient ligase than butelase-1 for Asp-mediated protein modification.
It seems that the microenvironment within the 51 pocket of OaAEP1 b has a unique ability to maintain the γCOOH of P1-Asp in the protonated form. However, for OaAEP1b-catalyzed cyclization, the difference in reactivity between 21j and 21e at pH 4.0-7.4 was not very high. The biggest difference was 9.5 folds at pH 7.4. […]

butelase-1 = assay: Butelase-1-catalyzed peptide cyclization (substrate screen, pH scan, kinetics); assay type: biochemical; settings: for Km / kcat: Butelase-1, cyclization
Experimental: as §1, §2, §3, §4, §5, §6

VyPAL2 = assay: VyPAL2-catalyzed peptide cyclization (substrate screen, pH scan, kinetics); assay type: biochemical, Viola yedoensis
Experimental: as §1, §2, §3, §4, §5
scanning experiment using the two peptides 21e and 21j was performed. Cyclization reactions were conducted by mixing 5 μM of peptide 21e or 50 μM of 21j with 25 nM of VyPAL2 over a pH range of 4.0 to 7.4. Results confirmed that the optimum pH for the cyclization of the P1-Asn peptide 21j was 6.5-7.4. But for the P1-Asp peptide 21e (which has the C-terminal DSL tripeptide), the optimum pH was 4.0-4.5.
It is worth noting that, at pH 7.4, VyPAL2 processed peptide 21j for cyclization at a rate that is >1000 folds faster than processing peptide 21e (FIG. 10). This enormous difference of reactivity essentially established the orthogonality for ligation at Asn in the presence of aspartyl bonds.

[4] = target: T1, Peptide 21j (SEQ ID NO:24), GISTKSIPPISYRNGL
T1 chain: GISTKSIPPISYRNGL

[5] = target: T2, Peptide 21a (SEQ ID NO:15), GISTKSIPPISYRDGL
T2 chain: GISTKSIPPISYRDGL

[6] = target: T3, Peptide 7 (SEQ ID NO:11), Ac-KKLAVINGF
T3 chain: KKLAVINGF

[7] = target: T4, Peptide 5 (SEQ ID NO:10), GFGGIKA
T4 chain: GFGGIKA

[8] = target: T5, Peptide 21e (SEQ ID NO:19), GISTKSIPPISYRDSL
T5 chain: GISTKSIPPISYRDSL

[9] = target: T6, Peptide 1 (SEQ ID NO:7), Ac-KKLAVINHV
T6 chain: KKLAVINHV

[10] = cyclization of a model peptide; cited from earlier work

Sequence of butelase-1 (as listed by the source): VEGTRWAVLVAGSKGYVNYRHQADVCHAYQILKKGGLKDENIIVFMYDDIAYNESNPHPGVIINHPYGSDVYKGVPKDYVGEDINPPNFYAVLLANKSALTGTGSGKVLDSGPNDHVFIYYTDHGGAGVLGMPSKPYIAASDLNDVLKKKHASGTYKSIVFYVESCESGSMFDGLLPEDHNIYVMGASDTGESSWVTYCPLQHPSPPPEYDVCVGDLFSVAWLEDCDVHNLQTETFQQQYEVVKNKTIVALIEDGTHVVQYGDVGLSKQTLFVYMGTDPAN

Km (OaAEP1b; pH 7.0): 25.3 ± 2.5 µM | Km (butelase-1; pH 4.5): 12.7 ± 2.1 µM | kcat (butelase-1; pH 4.5): 0.6 ± 0.05 s⁻¹ | Km (butelase-1; pH 7.4): 13.5 ± 1.5 µM | kcat (butelase-1; pH 7.4): 9.4 ± 0.3 s⁻¹ | difference in reaction efficiency between 21j and 21e (butelase-1; butelase-1, pH 7.4): about 950 times | Km (VyPAL2; VyPAL2, cyclization, pH 4.5): 28.4 ± 4.1 µM | Km (VyPAL2; VyPAL2, cyclization, pH 7.4): 25.8 ± 1.7 µM
Molecule: GISTKSIPPISYRNGL (GISTKSIPPISYRNGL-NH2) [Peptide 21j]
kcat (OaAEP1b; pH 7.0): 5.5 ± 0.3 s⁻¹ | difference in reactivity between 21j and 21e (biggest) (OaAEP1b; pH 7.4): 9.5 folds | optimum pH for cyclization (VyPAL2; 25 nM VyPAL2, pH range 4.0 to 7.4, 5 μM 21e or 50 μM 21j): 6.5-7.4 | kcat (VyPAL2; VyPAL2, cyclization, pH 4.5): 1.9 ± 0.18 s⁻¹ | Vmax (VyPAL2; VyPAL2, cyclization, pH 7.4): 5.633 µM/min | kcat (VyPAL2; VyPAL2, cyclization, pH 7.4): 5.5 ± 0.4 s⁻¹ | fold difference, cyclization rate of 21j versus 21e (VyPAL2; VyPAL2, pH 7.4): > 1000 folds

Km (OaAEP1b; pH 5.5): 35.1 ± 5.9 µM
Molecule: GISTKSIPPISYRDGL (GISTKSIPPISYRDGL-NH2) [Peptide 21a]
kcat (OaAEP1b; pH 5.5): 5.9 ± 0.7 s⁻¹

More lines, now with the values behind:

Molecule: CC[C@H](C)[C@H](NC(=O)CN)C(=O)NCC(=O)NCC(=O)N[C@@H](Cc1ccccc1)C(=O)N[C@@H](CCCCN)C(=O)NCC(=O)NCC(=O)N[C@H](CCCCN)C(=O)N[C@H](CC(C)C)C(=O)N[C@H](C)C(=O)N[C@H](CCCCN)C(=O)N[C@H](CC(C)C)C(=O)N[C@H](C)C(=O)N[C@H](CCCCN)C(=O)N[C@H](CCCCN)C(=O)N[C@H](CC(C)C)C(=O)N[C@H](C)C(=O)N[C@H](CCCCN)C(=O)N[C@H](CC(C)C)C(=O)N[C@H](C)C(=O)N[C@H](CCCCN)C(N)=O [Peptide 11] (HELM PEPTIDE1{G.I.G.G.F.K.G.G.[dK].[dL].[dA].[dK].[dL].[dA].[dK].[dK].[dL].[dA].[dK].[dL].[dA].[dK].[am]}$$$$V2.0; N-terminus assumed)
IC50 (A431 cells; 84 h): ~1300 µM | IC50 (MCF-7 cells [1]; 84 h): ~480 µM

Molecule: COc1cccc2c1C(=O)c1c(O)c3c(c(O)c1C2=O)C[C@@](O)(C(=O)CO)C[C@@H]3O[C@H]1C[C@H](N)[C@H](O)[C@H](C)O1 [Dox, doxorubicin]
IC50 (A431 cells; Homo sapiens, A-431, A431, 36 h, MTT, read-out: IC50): 1.3 ± 0.04 µM | IC50 (A431 cells; Homo sapiens, A-431, A431, 96 h, MTT, read-out: IC50): 1.22 ± 0.15 µM | cell staining (confocal) (MCF-7 cells [2]; 10 μM): stained | cell staining (MCF-7 cells [2]; 2 μM 20, 10 μM DOX): stained | water solubility (Water solubility): poorly soluble in water | IC50 (MCF-7 cells [1]; Homo sapiens, MCF7, MCF-7, 36 h, MTT, read-out: IC50): 1 ± 0.02 µM | IC50 (MCF-7 cells [1]; Homo sapiens, MCF7, MCF-7, 96 h, MTT, read-out: IC50): 1.6 ± 0.23 µM | cell staining (confocal) ([3]; 10 μM): stained | cell staining ([3]; 2 μM 20, 10 μM DOX): stained

B1: OaAEP1b (SEQ ID NO:44) (protein)
chain: SVGTRWAVLIAGSKGYANYRHQAGVCHAYQILKRGGLKDENIVVFMYDDIAYNESNPRPGVIINSPHGSDVYAGVPKDYTGEEVNAKNFLAAILGNKSAITGGSGKVVDSGPNDHIFIYYTDHGAAGVIGMPSKPYLYADELNDALKKKHASGTYKSLVFYLEACESGSMFEGILPEDLNIYALTSTNTTESSWAYYCPAQENPPPPEYNVCLGDLFSVAWLEDSDVQNSWYETLNQQYHHVDKRISHASHATQYGNLKLGEEGLFVYMGSNPANDNYTSLDGNALTPSSIVVNQRDAD
Km, cyclization at pH 7.0 [4]: 25.3 µM | kcat, cyclization at pH 7.0 [4]: 5.5 s⁻¹ | kcat/Km, cyclization at pH 7.0 [4]: 211000 ± 8260 M^-1s^-1 | Km, cyclization at pH 5.5 [5]: 35.1 µM | kcat, cyclization at pH 5.5 [5]: 5.9 s⁻¹ | kcat/Km, cyclization at pH 5.5 [5]: 172000 ± 9250 M^-1s^-1

B2: VyPAL2 (asparaginyl ligase, active form, SEQ ID NO:1) (protein)
chain: DSIGTRWAVLIAGSKGYHNYRHQADVCHMYQILRKGGVKDENIIVFMYDDIAYNESNPFPGIIINKPGGENVYKGVPKDYTGEDINNVNFLAAILGNKSAIIGGSGKVLDTSPNDHIFIYYADHGAPGKIGMPSKPYLYADDLVDTLKQKAATGTYKSMVFYVEACNAGSMFEGLLPEGTNIYAMAASNSTEGSWITYCPGTPDFPPEFDVCLGDLWSITFLEDCDAHNLRTETVHQQFELVKKKIAYASTVSQYGDIPISKDSLSVYM
Km, intermolecular ligation of peptide 7 (varied) with nucleophile peptide 2 [6]: 155 µM | kcat, intermolecular ligation of peptide 7 (varied) with nucleophile peptide 2 [6]: 1.1 S^-1 | kcat/Km, intermolecular ligation of peptide 7 (varied) with nucleophile peptide 2 [6]: 7220 M^-1S^-1 | Km, cyclization at pH 4.5 [4]: 28.4 µM | Km, cyclization at pH 7.4 [4]: 25.8 µM | Vmax, cyclization at pH 7.4 [4]: with Vmax of 0.004 and 5.633 µM/min respectively | kcat, cyclization at pH 4.5 [4]: 1.9 s⁻¹ | kcat, cyclization at pH 7.4 [4]: 5.5 s⁻¹ | kcat/Km, cyclization at pH 4.5 [4]: 67000 ± 3230 M^-1s^-1 | kcat/Km, cyclization at pH 7.4 [4]: 214000 ± 3900 M^-1s^-1 | Km, intermolecular ligation of GF-peptide 5 (varied) with acyl substrate peptide 4 [7]: 424 µM | kcat, intermolecular ligation of GF-peptide 5 (varied) with acyl substrate peptide 4 [7]: 8.29 S^-1 | kcat/Km, intermolecular ligation of GF-peptide 5 (varied) with acyl substrate peptide 4 [7]: 19600 M^-1S^-1 | Km, cyclization at pH 4.5 [8]: 25.6 µM | Km, cyclization at pH 7.0 [8]: 42.3 µM | Vmax, cyclization at pH 7.4 [8]: with Vmax of 0.004 and 5.633 µM/min respectively | kcat, cyclization at pH 4.5 [8]: 0.28 s⁻¹ | kcat, cyclization at pH 7.0 [8]: 0.021 s⁻¹ | kcat/Km, cyclization at pH 4.5 [8]: 10900 ± 195 M^-1s^-1 | kcat/Km, cyclization at pH 7.0 [8]: 752 M^-1s^-1 | kcat/Km, cyclization at pH 7.0 (value in running text, differs from Table 2) [8]: kcat/Km as ˜847±123 M -1 5 1 | Km, intermolecular ligation of peptide 1 (varied) with nucleophile peptide 2 [9]: 182 µM | kcat, intermolecular ligation of peptide 1 (varied) with nucleophile peptide 2 [9]: 0.17 S^-1 | kcat/Km, intermolecular ligation of peptide 1 (varied) with nucleophile peptide 2 [9]: 932 M^-1S^-1

B3: VyPAL2: plant legumain from the Viola Yedoensis family, highly active peptidyl asparaginyl ligase (SEQ ID NO:1) (protein)
chain: DSIGTRWAVLIAGSKGYHNYRHQADVCHMYQILRKGGVKDENIIVFMYDDIAYNESNPFPGIIINKPGGENVYKGVPKDYTGEDINNVNFLAAILGNKSAIIGGSGKVLDTSPNDHIFIYYADHGAPGKIGMPSKPYLYADDLVDTLKQKAATGTYKSMVFYVEACNAGSMFEGLLPEGTNIYAMAASNSTEGSWITYCPGTPDFPPEFDVCLGDLWSITFLEDCDAHNLRTETVHQQFELVKKKIAYASTVSQYGDIPISKDSLSVYM
modifications: VyPAL2 core domain
catalytic efficiency [10]: 274,325 M^−1 s^−1

From patent publication US20240117402A1, “METHODS FOR (POLY) PEPTIDE TANDEM LIGATION AND CYCLIZATION” (Nanyang Technological University, priority 2021, published 2024)
